Reference: publication doi:10.1101/528711

Columns and labels:
Atto532-tUI [1] = biological target: Atto532-tUI (UniProt Q9UMX0); assay: other fluorescence titration
tIVR = tIVR (UniProt P45974); assay: other fluorescence titration
Atto532-tISR = Atto532-tISR (UniProt P45974); assay: other fluorescence titration
tUI = tUI (UniProt Q9UMX0); assay: other fluorescence titration
Atto532-tUI [2] = biological target: Atto532-tUI (UniProt Q9UMX0); assay: stopped-flow fluorescence kinetics

Atto532-tUI, sequence (Q9UMX0 whole entry, looked up): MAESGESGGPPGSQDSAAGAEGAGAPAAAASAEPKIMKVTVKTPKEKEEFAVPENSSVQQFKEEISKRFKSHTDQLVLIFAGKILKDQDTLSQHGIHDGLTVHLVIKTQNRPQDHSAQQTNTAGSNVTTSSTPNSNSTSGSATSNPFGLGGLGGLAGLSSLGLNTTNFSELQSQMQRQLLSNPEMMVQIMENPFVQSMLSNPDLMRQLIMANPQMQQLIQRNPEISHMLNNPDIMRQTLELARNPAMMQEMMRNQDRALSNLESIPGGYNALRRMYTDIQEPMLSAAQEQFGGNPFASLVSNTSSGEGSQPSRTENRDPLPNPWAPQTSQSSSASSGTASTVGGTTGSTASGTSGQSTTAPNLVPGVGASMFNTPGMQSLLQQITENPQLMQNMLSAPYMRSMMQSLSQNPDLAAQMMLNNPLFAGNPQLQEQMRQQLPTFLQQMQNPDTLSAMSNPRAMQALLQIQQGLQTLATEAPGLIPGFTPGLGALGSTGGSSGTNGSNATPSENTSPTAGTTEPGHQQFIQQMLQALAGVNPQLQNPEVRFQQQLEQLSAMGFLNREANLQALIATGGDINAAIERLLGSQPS
tIVR, sequence (P45974 whole entry, looked up): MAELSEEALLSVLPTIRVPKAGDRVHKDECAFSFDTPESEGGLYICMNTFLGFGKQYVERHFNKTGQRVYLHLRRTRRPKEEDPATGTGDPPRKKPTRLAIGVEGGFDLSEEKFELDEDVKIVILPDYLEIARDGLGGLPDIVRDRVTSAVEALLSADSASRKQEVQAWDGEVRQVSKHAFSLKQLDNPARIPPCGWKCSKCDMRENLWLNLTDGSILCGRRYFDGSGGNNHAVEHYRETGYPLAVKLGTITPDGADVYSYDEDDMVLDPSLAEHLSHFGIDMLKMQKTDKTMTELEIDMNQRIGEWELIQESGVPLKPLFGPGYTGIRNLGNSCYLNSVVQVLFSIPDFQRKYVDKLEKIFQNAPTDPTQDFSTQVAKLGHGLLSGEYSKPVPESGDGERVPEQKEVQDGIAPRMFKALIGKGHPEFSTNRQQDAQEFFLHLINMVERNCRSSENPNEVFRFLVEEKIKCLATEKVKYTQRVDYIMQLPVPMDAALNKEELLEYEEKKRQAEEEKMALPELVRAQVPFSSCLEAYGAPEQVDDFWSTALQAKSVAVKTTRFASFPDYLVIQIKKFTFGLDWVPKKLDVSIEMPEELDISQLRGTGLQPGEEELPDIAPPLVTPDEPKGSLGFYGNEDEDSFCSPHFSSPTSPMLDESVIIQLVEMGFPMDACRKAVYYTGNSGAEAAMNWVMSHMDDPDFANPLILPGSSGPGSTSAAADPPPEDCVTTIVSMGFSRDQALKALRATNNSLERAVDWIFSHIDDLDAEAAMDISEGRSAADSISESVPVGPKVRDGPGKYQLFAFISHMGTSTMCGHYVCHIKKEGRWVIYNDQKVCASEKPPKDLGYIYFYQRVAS
Nedd8, sequence (Q15843 1-76): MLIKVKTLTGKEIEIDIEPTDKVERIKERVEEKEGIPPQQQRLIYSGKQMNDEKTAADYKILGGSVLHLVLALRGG
tUI, sequence (Q9UMX0 whole entry, looked up): as the sequence (Q9UMX0 whole entry, looked up) above
Atto532-tISR, sequence (P45974 whole entry, looked up): as the sequence (P45974 whole entry, looked up) above

Row | fold higher affinity for Ub than Nedd8 (Atto532-tUI [1]) | fold preference for Ub over Nedd8 (tIVR) | Kd (Atto532-tISR) | Kd (Atto532-tUI [1]) | Kd (tIVR) | Ki (tIVR) | Ki (tUI) | Kd (Atto532-tUI [2]) | Substance
1 | 120 fold | 3000 fold |  |  |  |  |  |  | Nedd8 (from UniProt Q15843 1-76) (natural protein)
2 |  |  | 24.3 nM | 0.066 nM | 25.4 nM | 19 nM | 0.194 nM | 0.0564 nM | ubiquitin (from UniProt P0CG48 1-76) (natural protein)
